Values of other authors, collected in US20150316548A1, “PROGRANULIN AS MARKER FOR AUTOIMMUNE DISORDERS” (UNIVERSITAET DES SAARLANDES, priority 2012, published 2015).

How the values were obtained:
TNF-Tg/GRN−/− mice = conditions: cited from earlier work
[1] = progranulin, reference [1]; cited from earlier work
[2] = test system: cytotoxic effects of TNF-α; conditions: in vitro; cited from earlier work
TNF-α-receptors 1 and 2 = conditions: mouse models, versus Etanercept; cited from earlier work

B1: progranulin: secreted glycoprotein, precursor with N-terminal signal peptide and seven granulin motifs; SEQ ID NO: 1 (protein, listed as Homo sapiens)
chain: MWTLVSWVALTAGLVAGTRCPDGQFCPVACCLDPGGASYSCCRPLLDKWPTTLSRHLGGPCQVDAHCSAGHSCIFTVSGTSSCCPFPEAVACGDGHHCCPRGFHCSADGRSCFQRSGNNSVGAIQCPDSQFECPDFSTCCVMVDGSWGCCPMPQASCCEDRVHCCPHGAFCDLVHTRCITPTGTHPLAKKLPAQRTNRAVALSSSVMCPDARSRCPDGSTCCELPSGKYGCCPMPNATCCSDHLHCCPQDTVCDLIQSKCLSKENATTDLLTKLPAHTVGDVKCDMEVSCPDGYTCCRLQSGAWGCCPFTQAVCCEDHIHCCPAGFTCDTQKGTCEQGPHQVPWMEKAPAHLSLPDPQALKRDVPCDNVSSCPSSDTCCQLTSGEWGCCPIPEAVCCSDHQHCCPQGYTCVAEGQCQRGSEIVAGLEKMPARRASLSHPRDIGCDQHTSCPVGQTCCPSLGGSWACCQLPHAVCCEDRQHCCPAGYTCNVKARSCEKEVVSAQPATFLARSPHVGVKDVECGEGHFCHDNQTCCRDNRQGWACCPYRQGVCCADRRHCCPAGFRCAARGTKCLRREAPRWDAPLRDPALRQLL
modifications: misc (1)..(593) Progranulin
- clinical response of spontaneous arthritis (TNF-Tg/GRN−/− mice): rapid clinical recovery
- plasma levels of cartilage oligomeric matrix protein (COMP) (TNF-Tg/GRN−/− mice): decreased
- half-life [1]: about 40 h
- protection of cells from cytotoxic effects of TNF-α [2]: protected cells in vitro from cytotoxic effects of TNF-α
- strength of the anti-inflammatory effect (TNF-α-receptors 1 and 2): comparable to the effect of the synthetic TNF-blocker “Etanercept”
